In paper PMC12098869, “An mRNA-display derived cyclic peptide scaffold reveals the substrate binding interactions of an N-terminal cysteine oxidase” (Nature Communications, 2025):
Several values for one entry are separate records, joined by “and”; a condition that tells them apart may be missing. Identical values can stand only once. Values belong to the binder of their own block, whether it stands above or below them. Bridges are numbered along the chain shown (N, C = ends). Where no end group is shown, it is not given here.

What was measured:
[1] = target: T1, 2-aminoethanethiol dioxygenase (ADO), wild type, biotinylated (pQE80L-Navi-ADO) (human, biotin on the Avi tag); test: SPR; single-cycle kinetics (SCK), 1:1 binding model; biotinylated ADO or variant immobilised on a Biotin CAP chip, peptide injected at 25.6, 64, 160, 400, 1000 nM; 4 °C; 20 mM HEPES pH 7.5, 500 mM NaCl, 10 mM DTT, 0.1% (v/v) tween-20; 50 μL/minute; conditions: both partners purified
T1 construct: 2-aminoethanethiol dioxygenase (ADO), human, full length; also called Biotinylated-ADO; source: E. coli Rosetta2(DE3), purified (Ni-NTA, SEC); not shown: Avi tag, N-terminal, kept; His6, N-terminal, kept
T1 chain: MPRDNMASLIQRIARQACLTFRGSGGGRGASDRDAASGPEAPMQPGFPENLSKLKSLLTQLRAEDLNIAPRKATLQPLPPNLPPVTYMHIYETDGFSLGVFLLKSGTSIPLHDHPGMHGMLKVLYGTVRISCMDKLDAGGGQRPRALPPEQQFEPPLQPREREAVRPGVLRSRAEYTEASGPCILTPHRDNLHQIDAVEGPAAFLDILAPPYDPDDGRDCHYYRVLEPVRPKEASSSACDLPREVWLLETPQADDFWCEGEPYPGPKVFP

[2] = target: T2, 2-aminoethanethiol dioxygenase (ADO), full-length human, N-terminally His-tagged and biotinylated … (human, UniProt Q96SZ5 1-270, biotin (biotinylated during expression, 0.2 mM biotin added)); test: SPR; single-cycle kinetics (1:1 binding model); biotinylated ADO immobilised on a Biotin CAP chip (~2500-3000 RU), cyclic peptide injected; Biacore T200, 4 °C; 20 mM HEPES pH 7.5, 500 mM NaCl, 10 mM DTT, 0.1% tween-20; 50 µL/minute; each cell is one of three independent measurements; conditions: both partners purified
T2 construct: 2-aminoethanethiol dioxygenase (ADO), human, UniProt Q96SZ5, full length; Immobilised through its biotin on a Biotin CAP chip for SPR; also called wild type ADO; Biotinylated-ADO; source: E. coli Rosetta2(DE3), purified (Ni-NTA, SEC); not shown: biotinylation tag (from the vector pQE80L-Navi), N-terminal, kept
T2 sequence (looked up): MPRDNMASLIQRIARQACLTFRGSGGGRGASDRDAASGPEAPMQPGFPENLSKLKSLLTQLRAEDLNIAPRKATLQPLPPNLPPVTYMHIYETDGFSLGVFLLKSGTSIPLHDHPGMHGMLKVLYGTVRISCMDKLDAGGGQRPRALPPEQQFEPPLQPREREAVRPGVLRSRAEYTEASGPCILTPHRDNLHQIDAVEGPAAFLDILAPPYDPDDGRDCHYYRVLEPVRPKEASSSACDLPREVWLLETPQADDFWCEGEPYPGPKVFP

[3] = target: 2-aminoethanethiol dioxygenase (ADO), wild type, biotinylated (pQE80L-Navi-ADO) (human); test: SPR; single-cycle kinetics (SCK), 1:1 binding model; biotinylated ADO or variant immobilised on a Biotin CAP chip, peptide injected at 25.6, 64, 160, 400, 1000 nM; 4 °C; 20 mM HEPES pH 7.5, 500 mM NaCl, 10 mM DTT, 0.1% (v/v) tween-20; 50 μL/minute
[4] = target: 2-aminoethanethiol dioxygenase (ADO), wild type, biotinylated (pQE80L-Navi-ADO) (human)
[5] = target: 2-aminoethanethiol dioxygenase (ADO), full-length human, N-terminally His-tagged and biotinylated (pQE80L-Navi-ADO) (human) (UniProt Q96SZ5)
[6] = target: T3, 2-aminoethanethiol dioxygenase (ADO), full-length human, N-terminally His-tagged and biotinylated … (human, UniProt Q96SZ5 1-270, biotin (biotinylated during expression, 0.2 mM biotin added)); test: cell-based or functional assay
T3 sequence (looked up): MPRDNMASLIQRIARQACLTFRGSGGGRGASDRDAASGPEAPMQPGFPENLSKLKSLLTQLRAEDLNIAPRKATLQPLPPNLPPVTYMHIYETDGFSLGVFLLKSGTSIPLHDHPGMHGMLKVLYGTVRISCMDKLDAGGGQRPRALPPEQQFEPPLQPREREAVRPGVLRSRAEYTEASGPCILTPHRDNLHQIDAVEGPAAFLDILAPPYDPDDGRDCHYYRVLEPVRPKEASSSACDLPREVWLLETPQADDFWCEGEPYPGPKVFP

Kd [1]: 30 nM
B1: cyclic peptide CP6 (peptide)
peptide: {CH2CO}-YIVKTFWLGSHRQC-NH2
modifications: thioether N-14
SMILES: CC[C@H](C)[C@@H]1NC(=O)[C@H](Cc2ccc(O)cc2)NC(=O)CSC[C@@H](C(N)=O)NC(=O)[C@H](CCC(N)=O)NC(=O)[C@H](CCCNC(=N)N)NC(=O)[C@H](Cc2c[nH]cn2)NC(=O)[C@H](CO)NC(=O)CNC(=O)[C@H](CC(C)C)NC(=O)[C@H](Cc2c[nH]c3ccccc23)NC(=O)[C@H](Cc2ccccc2)NC(=O)[C@H]([C@@H](C)O)NC(=O)[C@H](CCCCN)NC(=O)[C@H](C(C)C)NC1=O
notes: selected by RaPID mRNA display against ADO; also called ADO-L-06; source: synthetic peptide (Fmoc-SPPS)

Kd [2]: 5.8 nM and 5.64 nM and 5.96 nM | Kd [3]: 5.8 nM | IC50 of inhibition of ADO activity (oxidation of RGS5 (2-15) followed by LCMS; enzyme from the pET28a-ADO construct); blocks ADO with RGS5 (2-15) [4]: 0.19 µM | IC50 of inhibition of ADO activity [5]: 200 nM
B2: CP6-F6S (peptide)
peptide: {CH2CO}-YIVKTSWLGSHRQC
modifications: thioether N-14
notes: the substitution F6S is to be applied to them; Single amino acid substituent of CP6; source: synthetic peptide

IC50 of inhibition of ADO activity [6]: 21000 nM
B3: CP6-K4A (peptide)
peptide: {CH2CO}-YIVATFWLGSHRQC
modifications: thioether N-14
